Measurements: FireProtDB (doi:10.1021/bi991757+)

Settings: Enterobacteria phage 434, pH 6, Urea, CD, KH2PO4 25 mM, KCl 100 mM, reversible: yes, whole UniProt chain shown

B1: Regulatory protein cro wild type, P03036 (protein)
chain: MQTLSERLKKRRIALKMTQTELATKAGVKQQSIQLIEAGVTKRPRFLFEIAMALNCDPVWLQYGTKRGKAA
- denaturant m value (5 °C): 0.99 kcal/mol/M
- denaturant midpoint (higher = more stable) (5 °C): 3.32 M
- unfolding free energy (5 °C): 3.28 kcal/mol
- denaturant m value (15 °C): 0.91 kcal/mol/M
- denaturant midpoint (higher = more stable) (15 °C): 3.56 M
- unfolding free energy (15 °C): 3.23 kcal/mol
- denaturant m value (20 °C): 1.01 kcal/mol/M
- denaturant midpoint (higher = more stable) (20 °C): 3.42 M
- unfolding free energy (20 °C): 3.44 kcal/mol
- denaturant m value (25 °C): 1 kcal/mol/M
- denaturant midpoint (higher = more stable) (25 °C): 3.07 M
- unfolding free energy (25 °C): 3.05 kcal/mol
